According to publication PMC12487888 (2025):

Target: EutQ (residues 1 to 229) (S. Typhimurium LT2, UniProt Q9ZFV5 1-229)
Assay: ITC

EutQ (residues 1 to 229), sequence (Q9ZFV5 whole entry, the tested form may be a part): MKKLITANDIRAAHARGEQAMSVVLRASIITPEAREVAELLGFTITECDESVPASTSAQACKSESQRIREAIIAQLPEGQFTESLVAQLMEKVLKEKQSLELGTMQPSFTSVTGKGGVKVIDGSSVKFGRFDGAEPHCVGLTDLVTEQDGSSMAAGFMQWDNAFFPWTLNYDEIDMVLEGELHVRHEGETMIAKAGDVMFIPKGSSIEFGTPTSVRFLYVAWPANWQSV

Binder: MNQQDIEQVVKAVLLKMKDS [EutE^1–20 encapsulation peptide]
- Kd: 14.1 µM
